Test results as given in the Human Domainome abundance scans (Beltran et al. 2025).

B1: RNA-binding E3 ubiquitin-protein ligase MEX3C, residues 325 to 391; numbered along this chain, Q5U5Q3 (parent)
chain: GQTTVQVRVPYRVVGLVVGPKGATIKRIQQQTHTYIVTPSRDKEPVFEVTGMPENVDRAREEIEMHI

Variants of: B1
Experiment: abundance fitness (aPCA) (normalised: wild type 0, dead -1); higher = more abundant; growth selection in yeast, the domain comes from the species named
Details: Homo sapiens

Abundance fitness, by site and new letter:
I67: G 0.026 | T -0.023 | Y 0.476 | R -0.515 | M -0.635 | V 0.119
R60: I -0.026 | E -0.739 | H -0.401 | K -0.024 | A -0.694 | L -0.098 | D -1.13 | G -0.575 | M -0.296 | C -0.025 | T -0.557 | Q -0.639 | F -0.526 | W -0.53 | P -0.651 | V -0.006
A59: H -0.859 | W -1.08 | C -0.374 | T -0.929 | M -0.313 | P -0.854 | Q -0.802 | R -0.762 | L -0.886 | I -1.08 | V -0.719 | D -0.915 | S -0.829 | K -0.671 | E -0.967
N55: F -0.711 | M -0.541 | E -0.401 | L -0.885 | Q 0.138 | D 0.033 | G -0.281 | T -0.627 | S -0.426 | I -0.646 | K -0.647 | A -0.146 | R -0.789 | C -0.544 | V -0.8 | W -1.17 | Y -0.811
V56: Y -0.62 | T -0.286 | I -0.21 | Q -0.455 | C 0.009 | A -0.585 | M -0.455 | H -0.712 | D -0.75 | N -1.11 | K -0.402 | R -0.799 | W -0.809 | L -0.574 | S -0.496 | E -0.927
E64: F -0.029 | L 0.056 | M -0.006 | K -0.193 | Y -0.271 | D -0.015 | G -0.606 | H -0.222 | S -0.281 | C -0.309 | V -0.66 | W -0.179 | T -0.779 | P -0.435
E54: V -0.485 | Q -0.321 | H -0.332 | N -0.419 | R -0.248 | M -0.575 | S -0.213 | I -0.377 | W -0.174 | P -0.235 | L -0.325 | Y -0.382 | K -0.519 | T -0.267
R58: V -0.616 | P -1.09 | S -0.614 | F -0.519 | G -0.675 | D -0.73 | C -0.36 | I -0.954 | M -0.409 | N -0.434 | E -0.572 | T -1.1 | K 0.067 | W -0.555 | Q -0.304
M65: K 0.224 | G -0.049 | A 0.142 | N 0.033 | H 0.125 | L -0.114 | F -0.264 | V -0.449 | Q 0.225 | I -0.099 | R 0.216 | S 0.12 | P -0.699 | T 0.004 | C -0.285 | W -0.184 | Y 0.366 | D -0.223
E61: M -0.161 | S -0.089 | N -0.36 | G -0.343 | F -0.342 | A 0.014 | V -0.17 | P -0.85 | D -0.043 | H 0.022 | Y -0.177 | W -0.353 | T -0.037 | L -0.266 | Q -0.023 | I -0.472 | K 0.069
D57: R 0.018 | C -0.072 | N 0.069 | H -0.472 | L -0.057 | Q -0.108 | S -0.229 | A 0.151 | M 0.132 | I -0.11 | K 0.22 | Y -0.303 | F -0.176 | G -0.198 | P -0.673 | W -0.245 | V -0.143 | T 0.013 | E 0.137
